We go through 39 variants from the Human Domainome abundance scans (Beltran et al. 2025).

B1: Histone H1t, residues 44 to 112; numbered along this chain, P22492 (parent)
chain: VSKLITEALSVSQERVGMSLVALKKALAAAGYDVEKNNSRIKLSLKSLVNKGILVQTRGTGASGSFKLS

± gives the uncertainty stated by the source.

The variants in this data set derive from B1. Put plainly: abundance fitness (aPCA) (normalised: wild type 0, dead -1); higher = more abundant; growth selection in yeast, the domain comes from the species named. To be noted: Homo sapiens.
With VSKLITEALSVSQERVGMSLVALKKALAAAGYDVEKNNSRIALSLKSLVNKGILVQTRGTGASGSFKLS, the abundance fitness is -0.098 ± 0.025.

As for VSKLITEALSVSQERVGMSLVALKKALAAAGYDVEKNNSRIELSLKSLVNKGILVQTRGTGASGSFKLS, the abundance fitness amounted to 0.182 ± 0.038.

Consider VSKLITEALSVSQERVGMSLVALKKALAAAGYDVEKNNSRIDLSLKSLVNKGILVQTRGTGASGSFKLS, for which the abundance fitness was -0.096 ± 0.065.

Consider VSKLITEALSVSQERVGMSLVALKKALAAAGYDVEKNNGRIKLSLKSLVNKGILVQTRGTGASGSFKLS, for which the abundance fitness was -0.087 ± 0.044.

VSKLITEALSVSQERVGMSLVALKKALAAAGYDVEKNNRRIKLSLKSLVNKGILVQTRGTGASGSFKLS: the abundance fitness is -0.327 ± 0.049.

For the variant VSKLITEALSVSQERVGMSLVALKKALAAAGYDVEKNNERIKLSLKSLVNKGILVQTRGTGASGSFKLS, the abundance fitness is 0.148 ± 0.052.

For the variant VSKLITEALSVSQERVGMSLVALKKALAAAGYDVEKNNHRIKLSLKSLVNKGILVQTRGTGASGSFKLS, the abundance fitness is -0.089 ± 0.085.

In the case of VSKLITEALSVSQERVGMSLVALKKALAAAGYDVEKNNPRIKLSLKSLVNKGILVQTRGTGASGSFKLS, the abundance fitness is -0.445 ± 0.045.

On to VSKLITEALSVSQERVGMSLVALKKALAAAGYDVEKNNCRIKLSLKSLVNKGILVQTRGTGASGSFKLS, for which the abundance fitness was -0.675 ± 0.22.

Consider VSKLITEALSVSQERVGMSLVALKKALAAAGYDVEKNNARIKLSLKSLVNKGILVQTRGTGASGSFKLS, for which the abundance fitness is -0.005 ± 0.04.

As for VSKLITEALSVSQERVGMSLVALKKALAAAGYDVEKNNLRIKLSLKSLVNKGILVQTRGTGASGSFKLS, the abundance fitness was -0.317 ± 0.028.

As to VSKLITEALSVSQERVGMSLVALKKALAAAGYDVEKNNKRIKLSLKSLVNKGILVQTRGTGASGSFKLS, the abundance fitness is -0.001 ± 0.045.

In the case of VSKLITEALSVSQERVGMSLVALKKALAAAGYDVEKNNVRIKLSLKSLVNKGILVQTRGTGASGSFKLS, the abundance fitness was -0.539 ± 0.059.

Regarding VSKLITEALSVSQERVGMSLVALKKALAAAGYDVEKNNQRIKLSLKSLVNKGILVQTRGTGASGSFKLS, the abundance fitness was 0.075 ± 0.04.

For the variant VSKLITEALSVSQERVGMSLVALKKALAAAGYDVEKNNFRIKLSLKSLVNKGILVQTRGTGASGSFKLS, the abundance fitness was -0.594 ± 0.067.

Regarding VSKLITEALSVSQERVGMSLVALKKALAAAGYDVEKNNMRIKLSLKSLVNKGILVQTRGTGASGSFKLS, the abundance fitness is -0.228 ± 0.045.

For the variant VSKLITEALSVSQERVGMSLVALKKALAAAGYDVEKNNDRIKLSLKSLVNKGILVQTRGTGASGSFKLS, the abundance fitness was -0.013 ± 0.11.

On to VSKLITEALSVSQERVGMSLVALKKALAAAGYDVEKNNYRIKLSLKSLVNKGILVQTRGTGASGSFKLS, for which the abundance fitness was -0.557 ± 0.23.

For VSKLITEALSVSQERVGMSLVALKKALAAAGYDVEKNNWRIKLSLKSLVNKGILVQTRGTGASGSFKLS, the abundance fitness was -0.472 ± 0.072.

In the case of VSKLITEALSVSQERVGMSLVALKKALAAAGYDVEKNNNRIKLSLKSLVNKGILVQTRGTGASGSFKLS, the abundance fitness is 0.075 ± 0.15.

Turning to VSKLITEALSVSQERVGMSLVALKKALAAAGYDVEKSNSRIKLSLKSLVNKGILVQTRGTGASGSFKLS, the abundance fitness is -0.013 ± 0.28.

Regarding VSKLITEALSVSQERVGMSLVALKKALAAAGYDVEKWNSRIKLSLKSLVNKGILVQTRGTGASGSFKLS, the abundance fitness was -0.083 ± 0.38.

Consider VSKLITEALSVSQERVGMSLVALKKALAAAGYDVEKPNSRIKLSLKSLVNKGILVQTRGTGASGSFKLS, for which the abundance fitness is -0.173 ± 0.28.

With VSKLITEALSVSQERVGMSLVALKKALAAAGYDVEKINSRIKLSLKSLVNKGILVQTRGTGASGSFKLS, the abundance fitness was 0.148 ± 0.16.

Consider VSKLITEALSVSQERVGMSLVALKKALAAAGYDVEKYNSRIKLSLKSLVNKGILVQTRGTGASGSFKLS, for which the abundance fitness is -0.289 ± 0.38.

VSKLITEALSVSQERVGMSLVALKKALAAAGYDVEKLNSRIKLSLKSLVNKGILVQTRGTGASGSFKLS: the abundance fitness was -0.061 ± 0.11.

On to VSKLITEALSVSQERVGMSLVALKKALAAAGYDVEKRNSRIKLSLKSLVNKGILVQTRGTGASGSFKLS, for which the abundance fitness was 0.077 ± 0.18.

As to VSKLITEALSVSQERVGMSLVALKKALAAAGYDVEKGNSRIKLSLKSLVNKGILVQTRGTGASGSFKLS, the abundance fitness is -0.091 ± 0.12.

Regarding VSKLITEALSVSQERVGMSLVALKKALAAAGYDVEKHNSRIKLSLKSLVNKGILVQTRGTGASGSFKLS, the abundance fitness is 0.093 ± 0.24.

Consider VSKLITEALSVSQERVGMSLVALKKALAAAGYDVEKMNSRIKLSLKSLVNKGILVQTRGTGASGSFKLS, for which the abundance fitness was -0.45 ± 0.28.

For VSKLITEALSVSQERVGMSLVALKKALAAAGYDVEKVNSRIKLSLKSLVNKGILVQTRGTGASGSFKLS, the abundance fitness was -0.161 ± 0.17.

VSKLITEALSVSQERVGMSLVALKKALAAAGYDVEKTNSRIKLSLKSLVNKGILVQTRGTGASGSFKLS: the abundance fitness is -0.522 ± 0.33.

Regarding VSKLITEALSVSQERVGMSLVALKKALAAAGYDVEKFNSRIKLSLKSLVNKGILVQTRGTGASGSFKLS, the abundance fitness was -0.178 ± 0.29.

As to VSKLITEALSVSQERVGMSLVALKKALAAAGYDVEKNNSNIKLSLKSLVNKGILVQTRGTGASGSFKLS, the abundance fitness is -0.165 ± 0.12.

VSKLITEALSVSQERVGMSLVALKKALAAAGYDVEKNNSLIKLSLKSLVNKGILVQTRGTGASGSFKLS: the abundance fitness is -0.097 ± 0.12.

As for VSKLITEALSVSQERVGMSLVALKKALAAAGYDVEKNNSKIKLSLKSLVNKGILVQTRGTGASGSFKLS, the abundance fitness was 0.128 ± 0.031.

Take VSKLITEALSVSQERVGMSLVALKKALAAAGYDVEKNNSPIKLSLKSLVNKGILVQTRGTGASGSFKLS: the abundance fitness was -0.444 ± 0.03.

For VSKLITEALSVSQERVGMSLVALKKALAAAGYDVEKNNSVIKLSLKSLVNKGILVQTRGTGASGSFKLS, the abundance fitness was -0.396 ± 0.21.

Take VSKLITEALSVSQERVGMSLVALKKALAAAGYDVEKNNSGIKLSLKSLVNKGILVQTRGTGASGSFKLS: the abundance fitness is -0.372 ± 0.037.
